A short description of this data set: yeast display, Sf9 membrane polyspecificity reagent, FACS + sequencing; frameworks hold sequencing errors. Summed up: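 A nanobody's polyreactivity label depends on the gate it was sorted from. Yeast display cells were stained with 10% biotinylated, detergent-solubilized Sf9 membrane reagent for 1 hour at 4 °C, enriched on streptavidin microbeads and sorted by FACS. The low and high (top ~1%) gates were set on anti-HA fluorescence for expression and streptavidin fluorescence for reagent binding.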
As to “QVQLVESGGGLVQAGGSLRLSCAASGSIFEVNAMGWYTQAPGKERELVATITYSGGSTYYADSVKGRFTISRDNAKNTVYLQMNSLKPEDTAVYYCATDYVDWELYIYDYWGQGTQVTVSS”, the “polyreactivity (PSR sort gate)” value is “low polyreactivity”.

As for “QVQLVESGGGLVQAGGSLRLSCAASGSIFEWYAMGWYRQAPGKERELVAAINSGGSTYYADSVQGRFTISRDNAKNTVYLQMNSLKPEDTAVYYCNYDTLLQDRLGDWYDYDYWGQGTQVTVSS”, the “polyreactivity (PSR sort gate)” value was “low polyreactivity”.

Consider “QVQLVESGGGLVQAGGSLRLSCAASGSIFEWYAMGWYRQEPGKERELVADITYNGGSTYYADSVKGRFTISRDNAKNTVYLQMNSLKPEDSAVYYCNKDIERYVSIYDSWGQGTQVTVSS”, for which the “polyreactivity (PSR sort gate)” value was “low polyreactivity”.

With “QVQLVESGGGLVQAGGSLRLSCAASGSIFEYYAMGWYREAPGKERELVAAITSSGASTYYADSVKGHFTISRDNAKNSVYLQMNSLKPEDTAVYYCAKEVIRYSQYIFDYWGQGTQVTVSS”, the “polyreactivity (PSR sort gate)” value is “low polyreactivity”.

Regarding “QVQLVESGGGLVQAGGSLRLSCAASGSIFEYYAMGWYRQAPGKERELVASITSGGRTYYADSVKGRFTISRDNAKNTVYLQMNSLKPEDTAVYYCAAAYYNWGYTFYWGQGTQVTVSS”, the “polyreactivity (PSR sort gate)” value is recorded as “high polyreactivity”.

For “QVQLVESGGGLVQAGGSLRLSCAASGSIFEYYTMGWYRQAPGKEREFVAAITFTGDSTYYADSVKGRFTISRDNAKNTVYLQMNSLKPEDTAVYYCNADSVTYDGEYDYWGQGTQVTVSS”, the “polyreactivity (PSR sort gate)” value is given as “low polyreactivity”.

Turning to “QVQLVESGGGLVQAGGSLRLSCAASGSIFEYYVMGWYRQAPGKERELVAAISYSGDSTYYADSVKGRFTISRDNAKNTVYLQMNSLKPEDTAVYYCAAQYTRVIPPGYDYWGQGTQVTVSS”, the “polyreactivity (PSR sort gate)” value is “high polyreactivity”.

“QVQLVESGGGLVQAGGSLRLSCAASGSIFFDGNAMGWYRQAPGKERELVAAISVSGGSTYYADSVKGRFTISRDNAKNTVYLQMNSLKPEDTAVYYCAKYPSKSFVPGDYWGQGTQVTVSS”: the “polyreactivity (PSR sort gate)” value is listed as “low polyreactivity”.

“QVQLVESGGGLVQAGGSLRLSCAASGSIFFEYAMGWYRQATGKERELVAAISRRGGSTYYADSVKGRFTISRDNAKNTVYVQMNSLKPEDTAVYYCNKVNRASRGDYDYWGQGTQVTVSS”: the “polyreactivity (PSR sort gate)” value is on record as “high polyreactivity”.

For “QVQLVESGGGLVQAGGSLRLSCAASGSIFFFYALGWYRQAPGNERELVAAISKSPSSTYYADSVKGRFTISRDNAKKTVYVQMNSLKPEDTAVYYCNTGYSGIQYYYWGQGTQVTVSS”, the “polyreactivity (PSR sort gate)” value was “low polyreactivity”.

Consider “QVQLVESGGGLVQAGGSLRLSCAASGSIFFINAMGWYRQAPGKERELVADITSGGGTYYADSVKGRFTISRDNAKNTVYLQMNSLKPVDTAVYYCAKEYGFTGYGYWGQCTQVTVSS”, for which the “polyreactivity (PSR sort gate)” value is “low polyreactivity”.

On to “QVQLVESGGGLVQAGGSLRLSCAASGSIFFKYTLGWYRQAPGKERELVAAISYSGGRTYYADSVKGRFTISRDTAKNTVYLQMNSLKPEDTAVYDGATRDEITHGDRMDYWGQGTQVTVSS”, for which the “polyreactivity (PSR sort gate)” value is “low polyreactivity”.

Consider “QVQLVESGGGLVQAGGSLRLSCAASGSIFFKYTMGWYRQAPGKERELVAAITYTGGRTYYADSVKGRFTISRDNAKNTVYLQMNSLKPEDTAVYFCNKVTPRQGNRLAGVSGYDYWGQGTQVTVSS”, for which the “polyreactivity (PSR sort gate)” value is given as “high polyreactivity”.

“QVQLVESGGGLVQAGGSLRLSCAASGSIFFLYAMGWYRQAPGKERELVAAISRDGRTNYADSVKGRFTISRDNAKNTVYLQMNSLKPEDTAVYYCAKDGNHPGAVVYGYWGQRTQVTVSS”: the “polyreactivity (PSR sort gate)” value is reported as “low polyreactivity”.

“QVQLVESGGGLVQAGGSLRLSCAASGSIFFLYAMGWYRQAPGKERELVASISRGDSTNYADSVKGRFTISRDNAKNTVYLQMNSLKPEDTAVYYCAAYRLYWPSTARRYDYWGQGTQVTVSS”: the “polyreactivity (PSR sort gate)” value is recorded as “low polyreactivity”.

With “QVQLVESGGGLVQAGGSLRLSCAASGSIFFLYGMGWYRQAPGKERELVAAIRKRGSSTYYADSVKGRFTISRDNAKNTVYLQMNSLKPEDTAVYYCAAAALGYYGYRGFDYWGQGTQVTVSS”, the “polyreactivity (PSR sort gate)” value is reported as “low polyreactivity”.

Take “QVQLVESGGGLVQAGGSLRLSCAASGSIFFPNAMGWYRQAPGKERELVAAITSTSTNYADSVKGRCTNSRDNAKNTVYLQLNSLKPEDTAVYYCAADGEFRRAWYEGDYWGQGTQVTVSS”: the “polyreactivity (PSR sort gate)” value is on record as “low polyreactivity”.

“QVQLVESGGGLVQAGGSLRLSCAASGSIFFPYAMGWYIQAPGKERELVAAITGSTGSTYYADSVKGRFTISRDNAKNTVYLQMNSLKPEDTAVYYCAAAEYFVSGGIMDYWGQGTQVTVSS”: the “polyreactivity (PSR sort gate)” value is given as “high polyreactivity”.

Turning to “QVQLVESGGGLVQAGGSLRLSCAASGSIFFPYTMGWYRQAPGKERELVAAISERGGDTYYADSVKGRFTISRDNAKNTVYLQMNSLKPEDTAVYDCAAATSPISTSDYWGQGTQVTVSS”, the “polyreactivity (PSR sort gate)” value is recorded as “low polyreactivity”.

Regarding “QVQLVESGGGLVQAGGSLRLSCAASGSIFFPYVMGWYRQAPGKERELVAAITYRAGSTYYADSVKGRFTISRDHAKNTFYLQMNSLKPEDTAVYYCNKEAAPLGFVTSYYGRDYWGQGTQVTVSS”, the “polyreactivity (PSR sort gate)” value is “low polyreactivity”.

As to “QVQLVESGGGLVQAGGSLRLSCAASGSIFFQNAMGWYRQAPGKERELVATITSSVGSTYYADSVKGRFTISRDNAKNTVYFQMNSLKPEDTAVYYCNVRFFSAALWYTYFGYDYWGQGTQVTVSS”, the “polyreactivity (PSR sort gate)” value is recorded as “low polyreactivity”.

Regarding “QVQLVESGGGLVQAGGSLRLSCAASGSIFFRNAMGWYRQAPGKERELVAAITSGGGTYYADSVKGRLTISRDNAKNTVYLQMNSLKPEDTAVYYCAVVRGSRAIKHYYWGQGTQVTVSS”, the “polyreactivity (PSR sort gate)” value was “high polyreactivity”.

In the case of “QVQLVESGGGLVQAGGSLRLSCAASGSIFFRNVMGWYRQAPGKERELVAAISRSGSTNYADSVKGRFTISRDNAKNTVYLQMNSLKPEDTAVYYCAAQQWRRGRYRDTAGPMFAYDYWGQGTQVTVSS”, the “polyreactivity (PSR sort gate)” value is given as “low polyreactivity”.

On to “QVQLVESGGGLVQAGGSLRLSCAASGSIFFSNAMGWYRQAPGKERELVAAITSTGGSTYYADSVKGRFTISRDNAKNTVYLQMNSLKPEDTAVYYCAAASRRGYYYWGQGTQVTVSS”, for which the “polyreactivity (PSR sort gate)” value is on record as “high polyreactivity”.

In the case of “QVQLVESGGGLVQAGGSLRLSCAASGSIFFSNVMGWYRQAPGKERELVAAITGRTGSTYYADSVKGRFTISRDNAKNTVYLQMNSLKPEDTAVYYCFSYWPRYWQSGNDYWGQGTQVTVSS”, the “polyreactivity (PSR sort gate)” value was “high polyreactivity”.

In the case of “QVQLVESGGGLVQAGGSLRLSCAASGSIFFSYAMGWYRQAPGKEREGGSTDYADSVKGRFTISRDNAKNTVYLQMNSLKPEDTAVYYCAASVRGIRYDYWGQGTQVTVSS”, the “polyreactivity (PSR sort gate)” value is given as “low polyreactivity”.

For the sequence “QVQLVESGGGLVQAGGSLRLSCAASGSIFFSYAMGWYRQAPGKERELVAAIDYSGGGTYYADSVKGRFTISRDNAKNTVYLQMNSLKPEDTAVYYCNSDTEVWADTFISYRALNYWGQGTQVTVSS”, the “polyreactivity (PSR sort gate)” value is listed as “low polyreactivity”.

For “QVQLVESGGGLVQAGGSLRLSCAASGSIFFSYAMGWYRQAPGKERELVAAISSGGSTYYADSVKGRFTISRDNAKNTVYLQMNSLKPEDTAVYYCAARGYRLVPVDFYYWGQGTQVTVSS”, the “polyreactivity (PSR sort gate)” value is recorded as “low polyreactivity”.

Consider “QVQLVESGGGLVQAGGSLRLSCAASGSIFFSYAMGWYRQAPGKERELVAAISTSGGNTYYADSVKGRFTISRDNAKNTVYVQMNSLKPEDTAVYYCNARGSYPPYRSYGYWGQCTQVTVSS”, for which the “polyreactivity (PSR sort gate)” value is “low polyreactivity”.

For “QVQLVESGGGLVQAGGSLRLSCAASGSIFFSYVMGWYRQAPGKERELVADITYSGGSTFYADSVKGRFTISRDNAKNTVYLQMNSLKPEDTAVYYCAATWYSWGSEFDYWGQGTQVTVSS”, the “polyreactivity (PSR sort gate)” value is “high polyreactivity”.

For “QVQLVESGGGLVQAGGSLRLSCAASGSIFFTNTMGWYRKAPGKERELVAAITSGGSTNYADSVKGRFTISRDNAKNTVYLQMNSLKPEDTAVYYCAARYQPWLKYDFDSWGQGTQVTVSS”, the “polyreactivity (PSR sort gate)” value is reported as “low polyreactivity”.

Regarding “QVQLVESGGGLVQAGGSLRLSCAASGSIFFVYAMGWYRQAPGKERELVAAIDWDGGSTYYADSVKGRFTISRDNAKNTVYLQMNSLKPEDTAVYYCAADAWDLYSDGQEYNYWGQGTQVTVSS”, the “polyreactivity (PSR sort gate)” value is “high polyreactivity”.

As for “QVQLVESGGGLVQAGGSLRLSCAASGSIFFWNAMGWYRQAPGKERELVAAISWSAGITYYADSVKGRFTISRDNAKNTVYVQMNSLKPEDTAVYYCARDQGWYTVYYDSYDYWGQGTLVTVSS”, the “polyreactivity (PSR sort gate)” value is reported as “low polyreactivity”.

Take “QVQLVESGGGLVQAGGSLRLSCAASGSIFFWNTMGWYRQAPGKVRELVAAITVSGGSTYYADSVKGRFTISRDNAKNTVYLQMNSLKPEDSAVYYCAADPYRRYGYDSYNYWGQGTQVTVSS”: the “polyreactivity (PSR sort gate)” value is reported as “high polyreactivity”.

As for “QVQLVESGGGLVQAGGSLRLSCAASGSIFFWYTMGWYRQAPGKERELVATISWSDGTTYYADSVKGRFTISRDKAKNTVYLQMNSLIPEDTAVYYCAAESYPSEVSSYVSEYDYWGQGTQVTVSS”, the “polyreactivity (PSR sort gate)” value is “low polyreactivity”.

For “QVQLVESGGGLVQAGGSLRLSCAASGSIFFYAMGWYRPAPGKERELVAAISWRGGSTYYADSVKGRFTISRDNAKNTVYLQMNSLKPEDTAVYYCAKATRRYDVYTYGYWGQGTQVTVSS”, the “polyreactivity (PSR sort gate)” value is recorded as “high polyreactivity”.

On to “QVQLVESGGGLVQAGGSLRLSCAASGSIFFYAMGWYRQARGKERELVADITYTGGSKYADSVKGRFTISRDNAKNTVYLQMNSLKPEDTAVYYCAKLDGGLFDYWGQGTQVTVSS”, for which the “polyreactivity (PSR sort gate)” value is recorded as “low polyreactivity”.

For the sequence “QVQLVESGGGLVQAGGSLRLSCAASGSIFFYNAMAWYRQAPGKERELVAAINYNGGRTYYADSVKGRFTISRDNAKNTVYLQMNSMKQEDTAVYYCAARYGSGGDYWGQGTQVTVSS”, the “polyreactivity (PSR sort gate)” value was “low polyreactivity”.

In the case of “QVQLVESGGGLVQAGGSLRLSCAASGSIFFYNAMGWYRQAPGKERELVAAITTRGGSTYYADSVKGRFTISRDNAKNTVYLQMNSLKPEATAVYYCARSSRGKLVYWGQGTQVTVSS”, the “polyreactivity (PSR sort gate)” value is listed as “low polyreactivity”.

With “QVQLVESGGGLVQAGGSLRLSCAASGSIFFYYAMGWYRQAPGKDRELVAAITSSGDSTYYADSVKGRFTISRDNAKNTVYLQMNSLKPEDTAVYYCAALYIGYTGYYYWGQGTQVTVSS”, the “polyreactivity (PSR sort gate)” value was “low polyreactivity”.

With “QVQLVESGGGLVQAGGSLRLSCAASGSIFFYYAMGWYRQAPGKEREFVAGITYSGGITYYADSVKGRFTISRDNGKNTVYLQMNSLKPEDTAVYYCDYGGGVYQYGYWGQGPQVTVSS”, the “polyreactivity (PSR sort gate)” value is “low polyreactivity”.

These data come from the nanobody polyreactivity screen of Harvey et al. (2022).
